Results taken from PMC6721724, “The Intrinsically Disordered C-Terminal Domain Triggers Nucleolar Localization and Function Switch of PARN in Response to DNA Damage” (Cells, 2019).

Biological target: the molecule itself
Assay: cross-linking; purified protein cross-linked with 0.03% glutaraldehyde, analysed by SDS-PAGE

B1: full-length PARN, recombinant (enzyme, human, UniProt O95453 1-639, looked up)
chain: MEIIRSNFKSNLHKVYQAIEEADFFAIDGEFSGISDGPSVSALTNGFDTPEERYQKLKKHSMDFLLFQFGLCTFKYDYTDSKYITKSFNFYVFPKPFNRSSPDVKFVCQSSSIDFLASQGFDFNKVFRNGIPYLNQEEERQLREQYDEKRSQANGAGALSYVSPNTSKCPVTIPEDQKKFIDQVVEKIEDLLQSEENKNLDLEPCTGFQRKLIYQTLSWKYPKGIHVETLETEKKERYIVISKVDEEERKRREQQKHAKEQEELNDAVGFSRVIHAIANSGKLVIGHNMLLDVMHTVHQFYCPLPADLSEFKEMTTCVFPRLLDTKLMASTQPFKDIINNTSLAELEKRLKETPFNPPKVESAEGFPSYDTASEQLHEAGYDAYITGLCFISMANYLGSFLSPPKIHVSARSKLIEPFFNKLFLMRVMDIPYLNLEGPDLQPKRDHVLHVTFPKEWKTSDLYQLFSAFGNIQISWIDDTSAFVSLSQPEQVKIAVNTSKYAESYRIQTYAEYMGRKQEEKQIKRKWTEDSWKEADSKRLNPQCIPYTLQNHYYRNNSFTAPSTVGKRNLSPSQEEAGLEDGVSGEISDTELEQTDSCAEPLSEGRKKAKKLKRMKKELSPAGSISKNSPATLFEVPDTW
notes: poly(A)-specific ribonuclease (PARN), human, full length; cloned in pET-28a
binding result: binds
